Test: soluble on expression in E. coli; label from the status in PepcDB or PDB records

Row | Sequence | soluble on expression in E. coli
1 | MLNQKIQNPNPDELMIEVDLCYELDPYELKLDEMIEAEPEPEMIEGLPASDALTPADRYLELFEHVQSAKIFPDSKTFPDCAPKMDPLDILIRYRKVRRHRDFDLRKFVENHFWLPEVYSSEYVSDPQNSLKEHIDQLWPVLTREPQDHIPWSSLLALPQSYIVPGGRFSETYYWDSYFTMLGLAESGREDLLKCMADNFAWMIENYGHIPNGNRTYYLSRSQPPVFALMVELFEEDGVRGARRYLDHLKMEYAFWMDGAESLIPNQAYRHVVRMPDGSLLNRYWDDRDTPRDESWLEDVETAKHSGRPPNEVYRDLRAGAASGWDYSSRWLRDTGRLASIRTTQFIPIDLNAFLFKLESAIANISALKGEKETEALFRQKASARRDAVNRYLWDDENGIYRDYDWRREQLALFSAAAIVPLYVGMANHEQADRLANAVRSRLLTPGGILASEYETGEQWDKPNGWAPLQWMAIQGFKMYGDDLLGDEIARSWLKTVNQFYLEQHKLIEKYHIADGVPREGGGGEYPLQDGFGWTNGVVRRLIGLYGEPLEHHHHHH | not soluble
2 | MLNSFKLSLQYILPKLWLTRLAGWGASKRAGWLTKLVIDLFVKYYKVDMKEAQKPDTASYRTFNEFFVRPLRDEVRPIDTDPNVLVMPADGVISQLGKIEEDKILQAKGHNYSLEALLAGNYLMADLFRNGTFVTTYLSPRDYHRVHMPCNGILREMIYVPGDLFSVNHLTAQNVPNLFARNERVICLFDTEFGPMAQILVGATIVGSIETVWAGTITPPREGIIKRWTWPAGENDGSVALLKGQEMGRFKLGSTVINLFAPGKVNLVEQLESLSVTKIGQPLAVSTETFVTPDAEPAPLPAEEIEAEHDASPLVDDKKDQVMGHHHHHHSH | not soluble
3 | MLNSVKKLLGDSQKRKLKKYEQLVQEINNLEEKLSDLSDEELRHKTITFKDMLRDGKTVDDIKVEAFAVVREAAKRVLGLRHYDVQLIGGLVLLEGNIAEMPTGEGKTLVSSLPTYVRALEGKGVHVITVNDYLAKRDKELIGQVHEFLGLKVGLNIPQIDPSEKKLAYEADITYGIGTEFGFDYLRDNMAASKNEQVQRPYHFAIIDEIDSVLIDEAKTPLIIAGKKSSSSDLHYLCAKVIKSFQDTLHYTYDAESKSASFTEDGITKIEDLFDIDNLYDLEHQTLYHYMIQALRAHVAFQCDVDYIVHDEKILLVDIFTGRVMDGRSLSDGLHQALEAKEGLEITEENQTQASITIQNFFRMYPALSGMTGTAKTEEKEFNRVYNMEVMPIPTNRPIIREDKKDVVYVTADAKYKAVREDVLKHNKQGRPILIGTMSILQSETVARYLDEANITYQLLNAKSAEQEADLIATAGQKGQITIATNMAGRGTDILLGEGVHELGGLHVIGTERHESRRVDNQLKGRAGRQGDPGSSQFFLSLEDEMLKRFAQEEVEKLTKSLKTDETGLILTSKVHDFVNRTQLICEGSHFSMREYNLKLDDVINDQRNVIYKLRNNLLQEDTNMIEIIIPMIDHAVEAISKQYLVEGMLPEEWDFASLTASLNEILSVENMPSLSANNVHSPEDLQSVLKETLSLYKERVNELDSNTDLQQSLRYVALHFLDQNWVNHLDAMTHLKEGIGLRQYQQEDPTRLYQKEALDIFLYTYGNFEKEMCRYVARHLGVPENVQ | not soluble
4 | MLNTLIVGASGYAGAELVTYVNRHPHMNITALTVSAQSNDAGKLISDLHPQLKGIVELPLQPMSDISEFSPGVDVVFLATAHEVSHDLAPQFLEAGCVVFDLSGAFRVNDATFYEKYYGFTHQYPELLEQAAYGLAEWCGNKLKEANLIAVPGCYPTAAQLALKPLIDADLLDLNQWPVINATSGVSGAGRKAAISNSFCEVSLQPYGVFTHRHQPEIATHLGADVIFTPHLGNFPRGILETITCRLKSGVTQAQVAQALQQAYAHKPLVRLYDKGVPALKNVVGLPFCDIGFAVQGEHLIIVATEDNLLKGAAAQAVQCANIRFGYAETQSLI | not soluble
5 | MLPEKSEIVVIGGGIVGVTIAHELAKRGEEVTVIEKRFIGSGSTFRCGTGIRQQFNDEANVRVMKRSVELWKKYSEEYGFSFKQTGYLFLLYDDEEVKTFKRNIEIQNKFGVPTKLITPEEAKEIVPLLDISEVIAASWNPTDGKADPFEATTAFAVKAKEYGAKLLEYTEVKGFLIENNEIKGVKTNKGIIKTGIVVNATNAWANLINAMAGIKTKIPIEPYKHQAVITQPIKRGTINPMVISFKYGHAYLTQTFHGGIIGGIGYEIGPTYDLTPTYEFLREVSYYFTKIIPALKNLLILRTWAGYYAKTPDSNPAIGRIEELNDYYIAAGFSGHGFMMAPAVGEMVAELITKGKTKLPVEWYDPYRFERGELRTAALQMG | soluble
6 | MLPKAARIPHAMTLHGDTRIDNYYWLRDDTRSQPEVLDYLQQENSYGHRVMASQQALQDRILKEIIDRIPQREVSAPYIKNGYRYRHIYEPGCEYAIYQRQSAFSEEWDEWETLLDANKRAAHSEFYSMGGMAITPDNTIMALAEDFLSRRQYGIRFRNLETGNWYPELLDNVEPSFVWANDSWIFYYVRKHPVTLLPYQVWRHAIGTPASQDKLIYEEKDDTYYVSLHKTTSKHYVVIHLASATTSEVRLLDAEMADAEPFVFLPRRKDHEYSLDHYQHRFYLRSNRHGKNFGLYRTRMRDEQQWEELIPPRENIMLEGFTLFTDWLVVEERQRGLTSLRQINRKTREVIGIAFDDPAYVTWIAYNPEPETARLRYGYSSMTTPDTLFELDMDTGERRVLKQTEVPGFYAANYRSEHLWIVARDGVEVPVSLVYHRKHFRKGHNPLLVYGYGSYGASIDADFSFSRLSLLDRGFVYAIVHVRGGGELGQQWYEDGKFLKKKNTFNDYLDACDALLKLGYGSPSLCYAMGGSAGGMLMGVAINQRPELFHGVIAQVPFVDVVTTMLDESIPLTTGEFEEWGNPQDPQYYEYMKSYSPYDNVTAQAYPHLLVTTGLHDSQVQYWEPAKWVAKLRELKTDDHLLLLCTDMDSGHGGKSGRFKSYEGVAMEYAFLVALAQGTLPATPAD | not soluble
7 | MLPSTMFLVHLPLSTNRLHCLRNTSLESCLCSFVHLNHPLHISDPVILISLHEAVRFSFAFSFPRGTLSIAYCLMSSVSTSSEAIMSTELLANYCHSSLHVCICISSFPNETGNHDSFPGAVVSISDQPTDQCKLAAKELPLRNLLECRFFDCMGEEDLINLGVIGTER | soluble
8 | MLPSWKAFKAHNILRILTRFQSTKIPDAVIGIDLGTTNSAVAIMEGKVPRIIENAEGSRTTPSVVAFTKDGERLVGEPAKRQSVINSENTLFATKRLIGRRFEDAEVQRDINQVPFKIVKHSNGDAWVEARNRTYSPAQIGGFILNKMKETAEAYLAKSVKNAVVTVPAYFNDAQRQATKDAGQIIGLNVLRVVNEPTAAALAYGLDKSEPKVIAVFDLGGGTFDISILDIDNGIFEVKSTNGDTHLGGEDFDIYLLQEIISHFKKETGIDLSNDRMAVQRIREAAEKAKIELSSTLSTEINLPFITADAAGPKHIRMPFSRVQLENITAPLIDRTVDPVKKALKDARITASDISDVLLVGGMSRMPKVADTVKKLFGKDASKAVNPDEAVALGAAIQAAVLSGEVTDVLLLDVTPLSLGIETLGGVFTKLIPRNSTIPNKKSQIFSTAASGQTSVEVKVFQGERELVKDNKLIGNFTLAGIPPAPKGTPQIEVTFDIDANGIINVSAKDLASHKDSSITVAGASGLSDTEIDRMVNEAERYKNQDRARRNAIETANKADQLANDTENSIKEFEGKLDKTDSQRLKDQISSLRELVSRSQAGDEVNDDDVGTKIDNLRTSSMKLFEQLYKNSDNPETKNGRENK | not soluble
9 | MLQDADRTRILAISPHLDDAVLSVGASLAQAEQDGGKVTVFTVFAGSAAPPYSPAAERFHARWGLSPTEDAPLRRRNEDIAALDQLGAGHRHGRFLDAIYRRSPDGQWLLHHNEGSMVRQQSPANNHDLVAAIREDIESMIAECDPTLVLTCVAIGKHPDHKATRDATLLAARERGIPLRLWQDLPYAAYSQDLAELPDGLRLGSPELSFVDEEARTRKFQAMKHYATQLSVLDGPNKNLFAKLDEHARNAAPDGGYNETTWPVIRYAAE | soluble
10 | MLRYLLLSMYLFYIKKRRCHHFFIIVNIILSVSMQNDNLPFKITACVYKIV | not soluble
11 | MLSGTLFHKDVSIYSLFEELADKLNQKIEKRERLVKASRDVTYQSKKAIYLLHRAADEDLFSICSSAKEQLENIRQLICKLLLPELSAEEYFRFHSVFTIALQEYTEARLFLSYLSEGRALTLDEINAEISQQWQSLLENSEEARIY | soluble
12 | MLSSLRRVVPSLPRGSRSLTSQQIFDREKKFGCHNYKPLPVALSKGEGCFVWDVEGKKYFDFLAAYSAVNQGHCHPKLLKVVQEQASTLTLTSRAFYNNVLGEYEEYVTKLFKYDKVLPMNTGVEACESAVKLARRWAYDVKGVKDNEAVVVFAENNFWGRSIAAISASTDPDSFARFGPFVPGFKTVPYNNLKAVEDAIKDKNVAAFMVEPIQGEAGVVLPDPGYLKGVSDLCKKYNVLFITDEVQSGLGRSGKLLAHYHDNVRPDIVVLGKALSGGFYPVSAVLCDDNVMMNIKPGEHGSTYGGNPLACKVAIAALEILQEEKLVENSAVMGDLLMSKLKTLPKDIVSTVRGKGLFCAIVINKKYDAWKVCLKLKENGLLAKNTHGDIIRFAPPLCINKEQVEQAADIIIKTVTDFAKQN | not soluble
13 | MLSSSEKVAGQGVSGAYRELVRLLHRAAKDQLIVTENLPIEADVTHFHTIDFPYYLSTFQKKRSGRKIGYVHFLPATLEGSLKIPFFLKGIVKRYVFSFYNRMEHLVVVNPMFIEDLVAAGIPREKVTYIPNFVNKEKWHPLPQEEVVRLRTDLGLSDNQFIVVGAGQVQKRKGIDDFIRLAEELPQITFIWAGGFSFGGMTDGYEHYKKIMENPPKNLIFPGIVSPERMRELYALADLFLLPSYNELFPMTILEAASCEAPIMLRDLDLYKVILEGNYRATAGREEMKEAILEYQANPAVLKDLKEKAKNISREYSEEHLLQIWLDFYEKQAALGRK | not soluble
14 | MLSTSASLYLNELINEMRQLSETPIDCKNARMLLSKEISKVFDELYRHGQGFIDNGYGSDYNKNDFYSPHSANSGYSASPFPSRPSLPNHALSTSFYHNSFMTPIRNGRMRSPDQDLGDWSREKINDTQHVLQTKVYIPEPPVSIDGKKVKCNYIGRILGPSGMSARMIENQYDVTLLIRGAGSVRNKAMDERVRKRNEHLEEPLHVLLIARHNDKTKCEEILNKAAEKIESLLTPIHDEYKMDQLVSYAKMNGTYQERPKRKSQLDEQSHSNYWAPH | not soluble
15 | MLSVAGHRFASLATTPVLRMGLARCFSSVTGPFQCPPLPYVKNALEPHMSAETLTYHHDKHHQTYVDTLNSIAAENSTIASKTLEQIIKTETGKPFNQAAQVYNHTFFFNNLAPNGGGEPTGKIAELITRDFGSFEKFKEDFSAAAVGHFGSGWVWLIADDGKLKIVQGHDAGNPIRESKTPLMNIDVWEHAYYIDYRNARAQYVKNYWNLVNWDFVNDNVAKAGI | soluble
16 | MLSYRHAFHAGNHADMLKHFTLFLVLQYFNRKDKPYWYIDTHGGAGVYNLEGSEAQKVGEYRQGIALLRQAQNLPAELSDFAAHIQKILPSPKLYCGSPWLAQSLTRVGDKLRLFELHPTDFVHLQNNMGEAGLGKRGQVLREDGYKGLISLLPPPPRRATVLIDPPYEEKQDYRRVTETLKAALKRFESGCYLIWYPCLSREESRKLPEELKKLLPDNYLHAELHVHAPKADGFGMHGSGMFVINPPYLLAEQLAANLPALTRLLAQDEGSRYLLDSKIR | not soluble
17 | MLTEERHQKILQLLDQKSVVKSQELASLFNASESTIRRDLQELEDANLLERIHGGAKRILNLGFEQNMTEKSIKNTHEKQKIASLAVSCVQDGDMIYLDAGSTTLEMIPFLVGKQIHVVTNSVHHAAKLSDMEIPTIMLGGTLKLSTKAIIGATSMEQLQHFRFNKAFLGTNGAHLEFGLTTPDPEEAALKALAIHQAETAYVLLDHTKFNEVTFTKVEELESVTLLTDYCPAESLQGFQQKTILMEANKLEHHHHHH | soluble
